The values below come from patent WO1997032021A1.

The target of assay [1] is HLA-A3 molecule on the T2-A3 cell line. As to the kind of experiment: T2-A3 MHC stabilisation, w6/32 indirect immunofluorescence, flow cytometry; peptide at 100 uM. Background: In flow cytometry, cells or beads pass a laser one at a time.
Assay [2] shares this target. Description: T2-A3 MHC stabilisation, w6/32 indirect immunofluorescence, flow cytometry; peptide at 10 uM.
Assay [3] shares this target. As to the kind of experiment: T2-A3 MHC stabilisation, w6/32 indirect immunofluorescence, flow cytometry; peptide at 1 uM.

As for VLYYDFWSGY [HLA-A3 (1-10) peptide, based on CDR-H3 positions 1-10 of 105AD7], the Expression of MHC (FR), fluorescence ratio was 1.8 in assay [1], 1.8 in assay [2] and 1.2 in assay [3].

With DFWSGYLEY [HLA-A3 (5-13) peptide, based on CDR-H3 positions 5-13 of 105AD7], the Expression of MHC (FR), fluorescence ratio came to 1.3 in assay [1], 1.3 in assay [2] and 1.8 in assay [3].
